Source: US20220267421A1 (INVOX PHARMA, published 2022)
Numbering of substitutions follows the chain as printed. Read-outs that look alike come from different tables or passages of the source. One block for each binder: values may come before it.

Tests used:
CD137 on CD8+ T cells = CD137 on CD8+ T cells (human, UniProt Q07011 24-255); test: cell-based or functional assay
[1] = biological target: T1, cell surface human mesothelin (MSLN) (human, UniProt Q13421 296-598); test: cell-based or functional assay
human MSLN-His-Avi [2] = biological target: T2, human MSLN-His-Avi (human, UniProt Q13421 296-598, single biotin (BirA) in the biotinylated form); test: ratio of the two SPR KD
T2 construct: Monomeric, made in HEK293-6E; Used both immobilised and in solution; also called hMSLN-His-Avi; biotinylated hMSLN-His-Avi

human MSLN-His-Avi [3] = biological target: T2, human MSLN-His-Avi; test: SPR as Example 4.1 (about 40 RU instead of 100), MSLN immobilised
human MSLN-His-Avi [4] = biological target: T2, human MSLN-His-Avi; test: SPR as Example 4.1 (about 40 RU instead of 100), MSLN in solution
mouse MSLN-His-Avi [5] = biological target: T3, mouse MSLN-His-Avi (mouse, UniProt Q61468 298-600, single biotin (BirA) in the biotinylated form); test: ratio of the two SPR KD
T3 construct: Monomeric, made in HEK293-6E; also called mMSLN-His-Avi
T3 sequence: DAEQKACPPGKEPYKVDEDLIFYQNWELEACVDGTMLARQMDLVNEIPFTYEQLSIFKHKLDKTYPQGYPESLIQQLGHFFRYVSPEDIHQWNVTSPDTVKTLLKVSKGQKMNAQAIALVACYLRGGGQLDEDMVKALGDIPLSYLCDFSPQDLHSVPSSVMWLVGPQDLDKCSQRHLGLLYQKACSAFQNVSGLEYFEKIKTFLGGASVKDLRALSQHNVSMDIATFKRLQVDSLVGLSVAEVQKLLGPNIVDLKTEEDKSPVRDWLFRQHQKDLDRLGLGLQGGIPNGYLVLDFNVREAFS
Procedure: (§1) The procedure for binding to immobilised MSLN was similar to the method described in section 2.1.4 with mMSLN-His-Avi immobilised at 50 RU. To determine the affinity for soluble MSLN the mAb² were captured via anti-human Fc. Briefly, 25 μg/ml anti-human IgG (Fc) antibody (GE Healthcare, Human Antibody Capture Kit, BR100839) was coated on flow cells 1, 2, 3 and 4 of a Biacore sensor chip CM5 (GE Healthcare, BR100530) achieving a final response of approximately 750 RU. The mAb² clones, diluted in HBS-EP buffer (GE Healthcare, BR100188) at 50 nM, were injected individually on flows cell 2, 3 and 4 at 30 μl/min to achieve a response of approximately 100 RU. […] Regeneration was achieved by injecting 3 M magnesium chloride (GE Healthcare, Human Antibody Capture Kit, BR100839) for 30 seconds at a rate of 30 μl/min.

mouse MSLN-His-Avi [6] = biological target: T3, mouse MSLN-His-Avi; test: SPR (Biacore), mMSLN-His-Avi immobilised at 50 RU
Procedure: as §1

mouse MSLN-His-Avi [7] = biological target: T3, mouse MSLN-His-Avi; test: SPR (Biacore), mAb^2 captured via anti-human Fc, mMSLN-His-Avi in solution
Procedure: as §1

[8] = biological target: T4, OX40 on activated T cells (UniProt P43489 29-277, limits assumed); test: cell-based or functional assay
T4 sequence (looked up): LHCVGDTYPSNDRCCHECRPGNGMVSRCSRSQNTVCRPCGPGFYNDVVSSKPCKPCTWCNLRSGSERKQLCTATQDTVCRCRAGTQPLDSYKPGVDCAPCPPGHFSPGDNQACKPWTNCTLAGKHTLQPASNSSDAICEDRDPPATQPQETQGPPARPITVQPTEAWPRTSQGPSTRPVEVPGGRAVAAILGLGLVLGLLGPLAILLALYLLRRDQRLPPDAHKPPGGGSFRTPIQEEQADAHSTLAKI

human MSLN-His-Avi [9] = biological target: T2, human MSLN-His-Avi; test: ratio of the two SPR KD; remark: listed apart in the source
Procedure: (§2) Human MSLN-His-Avi was immobilised on flow cell 2 on a CM5 Series S BIAcore sensor chip (GE Healthcare, BR100530) using an amine coupling kit (GE Healthcare, BR10050) to approximately 200 response units (RU). Flow cell 1 was left blank for subtraction. HEK293-6E supernatants or purified proteins were adjusted with HBS-EP+(GE Healthcare) to approximately 50 nM anti-MSLN mAb per sample. Samples were injected over flow cell 1 and 2 for 2.5 min at 30 μl/min and then allowed to dissociate in HBS-EP buffer for 2.5 min. Regeneration was achieved by injecting 10 mM glycine pH 1.5 (GE Healthcare, BR100354) for 30 seconds at a rate of 30 μl/min. Subtracted data (flow cell 2−flow cell 1) were analysed using BIAevaluation 3.2 Software (GE Healthcare).
(§3) Binding of the selected anti-MSLN clones in mAb² format, to recombinant human and cyno MSLN-His-Avi antigen was measured by SPR using a Biacore T200 processing unit (GE Healthcare). As previously described, it was desirable to bind more strongly to immobilised antigen than to soluble antigen. To assess the binding properties of the clones, binding kinetics to immobilised MSLN antigen were determined as described in section 2.1.2 and compared to the kinetics obtained when MSLN antigens in solution bound to captured clones.
(§4) For the capture experiments, clones in mAb² format were captured using a BIAcore sensor series S chip Protein G (GE Healthcare, 29179315). mAb² diluted in HBS-EP buffer (GE Healthcare, BR100188) containing 900 mM […] at 1 μg/ml, were injected individually on flow cell 2, 3 and 4 at 30 μl/min to achieve a response of approximately 100 RU. G1-AA/HeID1.3 was captured on flow cell 1. The recombinant human and cyno MSLN-His-Avi (section 1.1), diluted in HBS-EP buffer containing 900 mM […], were injected on flow cell 1, 2, 3 or 4 as appropriate at a concentration range of 1000 nM to 0.051 nM with 3-fold dilutions for 5 minutes at 70 μl/min and then allowed to dissociate in buffer for 5 minutes. Regeneration was achieved by injecting 10 mM glycine pH1.5 (GE Healthcare, BR100354) and surfactant P20 (GE Healthcare, BR-1000-54) for 20 seconds at a rate of 30 μl/min.

[10] = biological target: T1, cell surface human mesothelin (MSLN); test: flow cytometry (BD CantoII), NCI-H226 cells
human MSLN-His-Avi [11] = biological target: T2, human MSLN-His-Avi; test: SPR (Biacore), MSLN immobilised, mAb^2 injected
Procedure: as §2, §3

[12] = biological target: T1, cell surface human mesothelin (MSLN); test: flow cytometry (BD CantoII), NCI-H226 cells + 20 nM soluble MSLN
human MSLN-His-Avi [13] = biological target: T2, human MSLN-His-Avi; test: SPR (Biacore), mAb^2 captured on Protein G, MSLN in solution injected
Procedure: as §3
as §4, with “μl/min. Subtracted data (flow cell 2−flow cell 1, flow cell 3−flow cell 1, or flow cell 4−flow cell 1) were analysed using BIAevaluation 3.2 Software (GE Healthcare) to identify binding using the model 1:1 binding, local Rmax and with refractive index (RI) constant 0.” for “μl/min.”

cynomolgus MSLN-His-Avi = biological target: T5, cynomolgus MSLN-His-Avi (cynomolgus, single biotin (BirA) in the biotinylated form); test: as above
T5 construct: Monomeric, made in HEK293-6E; also called cMSLN-His-Avi; cyno MSLN-His-Avi
T5 chain: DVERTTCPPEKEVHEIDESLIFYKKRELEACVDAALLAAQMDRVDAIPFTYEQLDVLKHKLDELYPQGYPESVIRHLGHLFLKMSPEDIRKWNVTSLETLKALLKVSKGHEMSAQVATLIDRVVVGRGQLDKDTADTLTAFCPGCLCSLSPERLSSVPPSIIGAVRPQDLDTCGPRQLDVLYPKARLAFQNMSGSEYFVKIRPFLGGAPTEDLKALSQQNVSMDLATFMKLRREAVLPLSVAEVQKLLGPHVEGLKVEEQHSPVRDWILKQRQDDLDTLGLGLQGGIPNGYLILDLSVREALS
Procedure: as §3
as §4, with “μl/min. Subtracted data (flow cell 2−flow cell 1, flow cell 3−flow cell 1, or flow cell 4−flow cell 1) were analysed using BIAevaluation 3.2 Software (GE Healthcare) to identify binding using the model 1:1 binding, local Rmax and with refractive index (RI) constant 0.” for “μl/min.”

T2 sequence (Q13421 other isoform, or with tags, fused parts or gaps): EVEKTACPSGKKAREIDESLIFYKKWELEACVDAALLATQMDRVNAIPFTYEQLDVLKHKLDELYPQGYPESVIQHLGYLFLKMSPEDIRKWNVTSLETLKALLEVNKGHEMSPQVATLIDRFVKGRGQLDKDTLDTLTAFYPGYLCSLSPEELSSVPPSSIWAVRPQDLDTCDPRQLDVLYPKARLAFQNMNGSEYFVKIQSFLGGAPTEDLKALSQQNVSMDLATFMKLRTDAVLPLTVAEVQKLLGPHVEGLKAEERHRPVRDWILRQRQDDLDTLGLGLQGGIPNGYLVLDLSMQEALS
T1 sequence (Q13421 other isoform, or with tags, fused parts or gaps limits assumed): as the sequence (Q13421 other isoform, or with tags, fused parts or gaps) above
Chain of CD137 on CD8+ T cells (Q07011 24-255): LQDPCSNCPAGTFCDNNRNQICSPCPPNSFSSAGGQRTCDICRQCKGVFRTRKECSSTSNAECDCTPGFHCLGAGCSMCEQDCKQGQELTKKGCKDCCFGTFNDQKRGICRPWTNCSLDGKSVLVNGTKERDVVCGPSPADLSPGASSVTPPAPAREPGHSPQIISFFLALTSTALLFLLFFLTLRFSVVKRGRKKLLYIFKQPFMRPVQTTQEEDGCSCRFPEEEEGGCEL

CD8+ T cell activation assay (IL-2 release), NCI-H226 cells for crosslinking: EC50 (CD137 on CD8+ T cells): 0.096 nM
CD8+ T cell activation assay (IL-2 release), NCI-H226 cells for crosslinking: EC50 [1]: 0.096 nM
Ratio of KD in solution/immobilised for human MSLN-His-Avi (human MSLN-His-Avi [2]): 3
Kd (human MSLN-His-Avi [3]): 5.9 nM
Kd (human MSLN-His-Avi [4]): 18.2 nM
B1: FS28-256-271 (in CD137 mAb^2 format) (bispecific antibody, V domains shown)
VH: EVQLLESGGGLVQPGGSLRLSCAASGFTFTHTYMSWVRQAPGKGLEWVSAISPTYSTTNYADSVKGRFTISRDNNKNTLYLQMNSLRAEDTAVYYCARYNAYHAALDYWGQGTLVTVSS
VL: EIVLTQSPGTLSLSPGERATLSCRASQSVSSSYLAWYQQKPGQAPRLLIYGASSRATGIPDRFSGSGSGTDFTLTISRLEPEDFAVYYCQQTVPYPYTFGQGTKVEIK

Ratio of KD in solution/immobilised for mouse MSLN-His-Avi (mouse MSLN-His-Avi [5]): 23.2
Kd (mouse MSLN-His-Avi [6]): 2.6 nM
Kd (mouse MSLN-His-Avi [7]): 60.2 nM
B3: FS22m-063-AA/FS28m-228-010 mAb^2 (bispecific antibody, human IgG1, kappa, L234A L235A, V domains shown)
VH: EVQLLESGGGLVQPGGSLRLSCAASGFTFSTYFMVWVRQAPGKGLEWVSMISPKSSNTYYADSVKGRFTISRDNSKNTLYLQMNSLRAEDTAVYYCARYHISPRFDYWGQGTLVTVSS
VL: EIVLTQSPGTLSLSPGERATLSCRASQSVSSSYLAWYQQKPGQAPRLLIYGASSRATGIPDRFSGSGSGTDFTLTISRLEPEDFAVYYCQQPFPFSFTFGQGTKVEIKR
notes: Anti-mouse CD137 Fcab with anti-mouse MSLN Fab; LALA; also called CD137/MSLN mAb^2

T cell activation assay (IL-2 release), NCI-H226 cells for crosslinking: EC50 [8]: 0.11 nM
T cell activation assay (IL-2 release), NCI-H226 cells for crosslinking: EC50 [1]: 0.11 nM
B4: OX40 (FS20-022-049)/FS28-256-271 mAb^2 (bispecific antibody, human IgG1, kappa, L234A L235A)
heavy: EVQLLESGGGLVQPGGSLRLSCAASGFTFTHTYMSWVRQAPGKGLEWVSAISPTYSTTNYADSVKGRFTISRDNNKNTLYLQMNSLRAEDTAVYYCARYNAYHAALDYWGQGTLVTVSSASTKGPSVFPLAPSSKSTSGGTAALGCLVKDYFPEPVTVSWNSGALTSGVHTFPAVLQSSGLYSLSSVVTVPSSSLGTQTYICNVNHKPSNTKVDKKVEPKSCDKTHTCPPCPAPEAAGGPSVFLFPPKPKDTLMISRTPEVTCVVVDVSHEDPEVKFNWYVDGVEVHNAKTKPREEQYNSTYRVVSVLTVLHQDWLNGKEYKCKVSNKALPAPIEKTISKAKGQPREPQVYTLPPSRDEYWDQEVSLTCLVKGFYPSDIAVEWESNGDEQFAYKTTPPVLDSDGSFFLYSKLTVDQYRWNPADYFSCSVMHEALHNHYTQKSLSLSPG
light: EIVLTQSPGTLSLSPGERATLSCRASQSVSSSYLAWYQQKPGQAPRLLIYGASSRATGIPDRFSGSGSGTDFTLTISRLEPEDFAVYYCQQTVPYPYTFGQGTKVEIKRTVAAPSVFIFPPSDEQLKSGTASVVCLLNNFYPREAKVQWKVDNALQSGNSQESVTEQDSKDSTYSLSSTLTLSKADYEKHKVYACEVTHQGLSSPVTKSFNRGEC

The next lines start with the binder.

B2: FS22-063-AA/FS28m-228 mAb^2 (bispecific antibody, human IgG1, kappa, L234A L235A, V domains shown)
VH: B3 VH with Y99W, H100F, I101T, S102P, P103A
VL: B3 VL
notes: LALA
Ratio of KD in solution/immobilised for mouse MSLN-His-Avi (mouse MSLN-His-Avi [5]): 31.9
Kd (mouse MSLN-His-Avi [6]): 7.9 nM
Kd (mouse MSLN-His-Avi [7]): 252 nM

B5: FS22-053-008-AA/FS28-185 (bispecific antibody, human IgG1, kappa, L234A L235A, V domains shown)
VH: EVQLLESGGGLVQPGGSLRLSCAASGFTFTTSAMSWVRQAPGKGLEWVSRINPYEGETNYADSVKGRFTISRDNSKNTLYLQMNSLRAEDTAVYYCARGWSIATYYKSAMDYWGQGTLVTVSS
VL: EIVLTQSPGTLSLSPGERATLSCRASQSVSSSYLAWYQQKPGQAPRLLIYGASSRATGIPDRFSGSGSGTDFTLTISRLEPEDFAVYYCQQSSYSAPVTFGQGTKVEIKR
Ratio of KD in solution/immobilised for human MSLN-His-Avi (human MSLN-His-Avi [9]): 15
EC50 [10]: 16.3 nM
Kd (human MSLN-His-Avi [11]): 30.1 nM
EC50 [12]: 14.3 nM
Kd (human MSLN-His-Avi [13]): 452 nM
Kd (cynomolgus MSLN-His-Avi): 362 nM
